Legend:
Assay in all cases: cell-based or functional assay
[1] = target: TGFβR2-IL12Rβ signaling redirector receptor
[2] = target: TGFβR2-IL21Rβ signaling redirector receptor
[3] = target: TGFβR2-IL2Rβ signaling redirector receptor
Chain of TGFβR2-IL2Rβ signaling redirector receptor (chain, as listed by the source): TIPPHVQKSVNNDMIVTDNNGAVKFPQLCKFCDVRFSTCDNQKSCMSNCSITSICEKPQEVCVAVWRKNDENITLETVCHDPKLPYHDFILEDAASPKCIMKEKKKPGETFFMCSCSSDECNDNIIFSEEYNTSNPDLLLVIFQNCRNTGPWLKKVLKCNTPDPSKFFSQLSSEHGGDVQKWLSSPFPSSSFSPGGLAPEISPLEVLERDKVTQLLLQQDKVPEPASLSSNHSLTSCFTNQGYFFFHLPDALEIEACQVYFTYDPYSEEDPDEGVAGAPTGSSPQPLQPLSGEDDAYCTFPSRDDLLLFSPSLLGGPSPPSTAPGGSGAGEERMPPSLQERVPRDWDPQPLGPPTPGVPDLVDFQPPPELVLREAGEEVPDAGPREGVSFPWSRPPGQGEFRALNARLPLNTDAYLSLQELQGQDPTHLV

Chain of TGFβR2-IL21Rβ signaling redirector receptor (chain, as listed by the source): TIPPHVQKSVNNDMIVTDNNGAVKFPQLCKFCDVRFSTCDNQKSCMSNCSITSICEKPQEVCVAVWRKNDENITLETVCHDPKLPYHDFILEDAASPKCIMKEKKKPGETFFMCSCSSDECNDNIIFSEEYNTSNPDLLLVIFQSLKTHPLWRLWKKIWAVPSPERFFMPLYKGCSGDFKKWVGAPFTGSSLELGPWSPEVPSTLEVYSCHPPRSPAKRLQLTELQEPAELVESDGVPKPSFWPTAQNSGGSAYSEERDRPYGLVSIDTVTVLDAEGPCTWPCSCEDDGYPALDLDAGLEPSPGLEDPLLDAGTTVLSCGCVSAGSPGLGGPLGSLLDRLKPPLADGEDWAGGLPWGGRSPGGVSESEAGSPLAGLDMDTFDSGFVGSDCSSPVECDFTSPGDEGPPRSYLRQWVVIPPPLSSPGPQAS
Chain of TGFβR2-IL12Rβ signaling redirector receptor (main, as listed by the source): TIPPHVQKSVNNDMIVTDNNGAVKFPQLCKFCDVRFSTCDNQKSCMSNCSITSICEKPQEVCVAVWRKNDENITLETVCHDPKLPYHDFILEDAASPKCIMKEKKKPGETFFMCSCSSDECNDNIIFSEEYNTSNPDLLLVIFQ

increase in tumor cell numbers over base input after three rounds of restimulation, with recombinant TGFβ [1]: 1.5 fold | increase in tumor cell numbers over base input after three rounds of restimulation, with recombinant TGFβ [2]: 1.5 fold | increase in tumor cell numbers over base input after three rounds of restimulation, with recombinant TGFβ [3]: 1.5 fold
Substance: recombinant TGFβ (ligand)

Reference: patent publication US20250000904A1
